Reference: patent US20060003400A1, “Methods and compositions for characterizing a redox reagent system enzyme” (priority 2004, published 2006)

Tests used:
Assay type in all cases: biochemical
[1] = DCIP/PES spectrophotometric assay (enzyme-limiting conditions); conditions: same range of sugar concentrations; results not shown
Method: (§1) In order to develop an assay for screening mutant forms of s-GDH with varying sugar specificities, the response of wild type and mutant forms of s-GDH with reducing sugars first were tested in a conventional enzyme-coated glucose test strip format. The screening assay ideally mimics the response shown with conventionally enzyme-coated strips tested with whole blood or plasma spiked with a reducing sugar. The mutant forms of s-GDH tested contained one amino acid substitution each: Asn452Thr and Asp167Glu. The test strips were made by a web-based process in which the working electrode (gold) was slot coated with a buffered reagent solution containing approximately 50 to 500 kU/ml wild type or mutant s-GDH, PQQ at a 2 to 1 mole ratio of PQQ to GDH, 2 mM CaCl2, 750 mM ferricyanide, 67 mM citraconate at pH 6.8, 0.1% pluronics and 75 mM sucrose. […] In the assay, change in the absorbance of DCIP at 600 nm was monitored and the decreasing rate of absorbance was referred to as the reaction rate of the enzyme. […]
(§2) Plasma with about 80 mg/dL (or 4.4 mM) endogenous glucose was spiked with up to 40 mM each of five reducing sugars: glucose, maltose, xylose, galactose and lactose. The spiked samples were dosed onto the above test strips and glucose concentration was determined by chronoamperometry as above. […]

[2] = Conventional enzyme-coated test strips dosed with whole blood spiked with interfering sugar, chronoamperometry; conditions: whole blood about 80 mg/dL glucose spiked with about 4 mM or 12 mM xylose; FIG. 4
Method: In order to develop an assay for screening mutant forms of s-GDH with varying sugar specificities, the response of wild type and mutant forms of s-GDH with reducing sugars first were tested in a conventional enzyme-coated glucose test strip format. The screening assay ideally mimics the response shown with conventionally enzyme-coated strips tested with whole blood or plasma spiked with a reducing sugar. The mutant forms of s-GDH tested contained one amino acid substitution each: Asn452Thr and Asp167Glu. The test strips were made by a web-based process in which the working electrode (gold) was slot coated with a buffered reagent solution containing approximately 50 to 500 kU/ml wild type or mutant s-GDH, PQQ at a 2 to 1 mole ratio of PQQ to GDH, 2 mM CaCl2, 750 mM ferricyanide, 67 mM citraconate at pH 6.8, 0.1% pluronics and 75 mM sucrose. […] The activity of each enzyme was based on a spectrophotometric assay using DCIP (2,6-Dichlorophenolindophenol) and PES (Phenazine Ethosulfate) in 50 mM PIPES (Piperazine, N,N′bis-(2-ethanesulfonic acid)) buffer at pH 6.8. In the assay, change in the absorbance of DCIP at 600 nm was monitored and the decreasing rate of absorbance was referred to as the reaction rate of the enzyme. The enzyme activity by which […] of DCIP was reduced in one minute was defined as 1 Unit. The molar absorption coefficient of DCIP at pH 6.8 was 17.4 mM-1. A COBAS FARA II centrifugal analyzer was used for the spectrophotometric assay. […]
Whole blood at about 80 mg/dL (or 4.4 mM) of endogenous glucose was spiked with either a high therapeutic level (about 60 mg/dL or 4 mM) or three times a high therapeutic level (about 180 mg/dL or 12 mM) of the interfering sugar xylose. The spiked samples were dosed onto the above test strips and glucose concentration was determined by chronoamperometry in which a potential of −0.3 V was applied for 10 seconds, followed by applying a potential of +0.3 V for 5 seconds. Absolute bias to a control sample with no xylose was calculated for each enzyme and was expressed as a function of xylose concentration, as shown in FIG. 4.

[3] = Conventional wild type s-GDH-coated test strips dosed with plasma spiked with reducing sugars, chronoamperometry; conditions: plasma spiked with up to 40 mM of five reducing sugars; at less than about 10 mM; FIG. 5
Method: as §1, §2

[4] = Enzyme/sugar solution dosed onto enzyme-free electrochemical cell (process of the invention), current response; conditions: FIGS. 6-8; for Current response to xylose compared with glucose: xylose less than 10 mM, about 13 activity units per cell; for Current response to all reducing sugars tested: sugars up to about 40 mM
Method: The response of wild-type s-GDH to reducing sugars was measured using electrochemical cells (i.e., test strips) made by a web-based process in which the working electrode (gold) was slot coated with a buffered reagent solution containing 750 mM ferricyanide, 67 mM citraconate at pH 6.8, 0.1% pluronics and 75 mM sucrose. As in Example 1, an IR energy source was used to dry the reagent onto the working electrode. Electrochemical cells were formed by adhering the working electrode with dried reagent to a gold counter electrode containing dried MESA to prevent fouling of the counter electrode.
Wild-type s-GDH in 67 mM citraconate at pH 6.8 with PQQ at a 2 to 1 mole ratio of PQQ to GDH and 2 mM CaCl2 was mixed with physiologically relevant concentrations (up to about 40 mM or 720 mg/dL) of one of the following sugars: glucose, xylose, galactose, maltose, or lactose. The concentration of the wild type s-GDH in each solution was adjusted such that approximately 13 activity units per electrochemical cell were used. Each enzyme/sugar-containing solution was dosed onto an electrochemical cell containing dried ferricyanide, citraconate, Pluronics and sucrose but no enzyme (see above for concentrations). The current response was measured and the average of three determinations was graphed as a function of sugar concentration, as shown in FIG. 6.
The response of Asn452Thr to reducing sugars was measured using the same lot of electrochemical cells as described in Example 2 above (i.e., with cells containing dried ferricyanide, citraconate, Pluronics and sucrose but no enzyme). Asn452Thr was mixed with physiologically relevant concentrations (up to about 40 mM or 720 mg/dL) of one of the following sugars: glucose, xylose, galactose, maltose, or lactose. The concentration of Asn452Thr in each solution was adjusted such that approximately 13 activity units per electrochemical cell were used. Each enzyme/sugar-containing solution was dosed onto an electrochemical cell containing dried ferricyanide, citraconate, Pluronics and sucrose but no enzyme. […] Thus, the assay mimics the results obtained with Asn452Thr-coated strips with the advantages discussed above.
The response of Asp167Glu to reducing sugars was measured as described in Example 3 above. Asp167Glu was mixed with physiologically relevant concentrations (up to about 40 mM or 720 mg/dL) of one of the following sugars: glucose, xylose, galactose, maltose, or lactose; and dosed onto an electrochemical cell containing dried ferricyanide, citraconate, Pluronics and sucrose but no enzyme. […] Thus, again, the assay beneficially mimics the results obtained with Asp167Glu-coated strips but in a quick and easy-to-use format.

| Molecule | Reactivity with xylose and galactose [1] | Absolute bias to a control sample with no xylose as a function of xylose concentration [2] | Current response as a function of sugar concentration [3] | Current response to xylose compared with glucose [4] | Current response to all reducing sugars tested [4] |
| --- | --- | --- | --- | --- | --- |
| wild-type s-GDH: soluble form of pyrroloquinoline quinone (PQQ)-dependent glucose dehydrogenase, naturally occurring (protein, UniProt P13650 25-478, looked up) Quinoprotein glucose …: DVPLTPSQFAKAKSENFDKKVILSNLNKPHALLWGPDNQIWLTERATGKILRVNPESGSVKTVFQVPEIVNDADGQNGLLGFAFHPDFKNNPYIYISGTFKNPKSTDKELPNQTIIRRYTYNKSTDTLEKPVDLLAGLPSSKDHQSGRLVIGPDQKIYYTIGDQGRNQLAYLFLPNQAQHTPTQQELNGKDYHTYMGKVLRLNLDGSIPKDNPSFNGVVSHIYTLGHRNPQGLAFTPNGKLLQSEQGPNSDDEINLIVKGGNYGWPNVAGYKDDSGYAYANYSAAANKSIKDLAQNGVKVAAGVPVTKESEWTGKNFVPPLKTLYTVQDTYNYNDPTCGEMTYICWPTVAPSSAYVYKGGKKAITGWENTLLVPSLKRGVIFRIKLDPTYSTTYDDAVPMFKSNNRYRDVIASPDGNVLYVLTDTAGNVQKDDGSVTNTLENPGSLIKFTYKAK | low reactivity with xylose and galactose | linear correlation | reacts equally well with each of the five reducing sugars tested | reacted equally well with glucose and xylose |  |
| Asp167Glu: mutant form of s-GDH with one amino acid substitution, Asp167Glu (protein, UniProt P13650 25-478, looked up, variant D167E) Quinoprotein glucose …: DVPLTPSQFAKAKSENFDKKVILSNLNKPHALLWGPDNQIWLTERATGKILRVNPESGSVKTVFQVPEIVNDADGQNGLLGFAFHPDFKNNPYIYISGTFKNPKSTDKELPNQTIIRRYTYNKSTDTLEKPVDLLAGLPSSKEHQSGRLVIGPDQKIYYTIGDQGRNQLAYLFLPNQAQHTPTQQELNGKDYHTYMGKVLRLNLDGSIPKDNPSFNGVVSHIYTLGHRNPQGLAFTPNGKLLQSEQGPNSDDEINLIVKGGNYGWPNVAGYKDDSGYAYANYSAAANKSIKDLAQNGVKVAAGVPVTKESEWTGKNFVPPLKTLYTVQDTYNYNDPTCGEMTYICWPTVAPSSAYVYKGGKKAITGWENTLLVPSLKRGVIFRIKLDPTYSTTYDDAVPMFKSNNRYRDVIASPDGNVLYVLTDTAGNVQKDDGSVTNTLENPGSLIKFTYKAK |  | reduced response with xylose |  | reduced response to xylose | reacts equally well with all the other reducing sugars tested |
| Asn452Thr: mutant form of s-GDH with one amino acid substitution, Asn452Thr (protein, UniProt P13650 25-478, looked up, variant N452T) Quinoprotein glucose …: DVPLTPSQFAKAKSENFDKKVILSNLNKPHALLWGPDNQIWLTERATGKILRVNPESGSVKTVFQVPEIVNDADGQNGLLGFAFHPDFKNNPYIYISGTFKNPKSTDKELPNQTIIRRYTYNKSTDTLEKPVDLLAGLPSSKDHQSGRLVIGPDQKIYYTIGDQGRNQLAYLFLPNQAQHTPTQQELNGKDYHTYMGKVLRLNLDGSIPKDNPSFNGVVSHIYTLGHRNPQGLAFTPNGKLLQSEQGPNSDDEINLIVKGGNYGWPNVAGYKDDSGYAYANYSAAANKSIKDLAQNGVKVAAGVPVTKESEWTGKNFVPPLKTLYTVQDTYNYNDPTCGEMTYICWPTVAPSSAYVYKGGKKAITGWENTLLVPSLKRGVIFRIKLDPTYSTTYDDAVPMFKSNNRYRDVIASPDGNVLYVLTDTAGTVQKDDGSVTNTLENPGSLIKFTYKAK |  | linear correlation |  | reacts equally well with glucose and xylose | reacts equally well with all the sugars tested at less than 10 mM sugar |
